This is an account of results in patent US20200354457A1.

Test [1] concerns the target Lag3 on cynomolgus PBMC/T cells (cynomolgus). As to the kind of experiment: flow cytometry, non-activated cynomolgus PBMC, 10 µg/ml. A general note: In flow cytometry, cells or beads pass a laser one at a time.
The target is the same in test [2]. As to the kind of experiment: flow cytometry, CD3/CD28-activated cynomolgus PBMC, 10 µg/ml.
Test [3] concerns the target Lag3 on Lag3+ NFAT Jurkat effector cells (Promega #CS194801). As to the kind of experiment: cell-based or functional assay.
Test [4] deals with cynomolgus LAG3 on transiently transfected HEK293F cells (cynomolgus). As to the kind of experiment: flow cytometry on HEK293F cells transfected with cyno LAG3, 10 µg/ml.

Sequence of control antibody MDX25F7 (VH): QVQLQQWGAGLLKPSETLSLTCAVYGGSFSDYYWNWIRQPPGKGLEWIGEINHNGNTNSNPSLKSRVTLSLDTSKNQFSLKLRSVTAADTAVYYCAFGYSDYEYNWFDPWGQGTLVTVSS
Sequence of control antibody MDX25F7 (VL): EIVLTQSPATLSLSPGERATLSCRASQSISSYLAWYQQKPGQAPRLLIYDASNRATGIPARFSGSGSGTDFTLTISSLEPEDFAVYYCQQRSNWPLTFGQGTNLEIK

In the case of DP47 (human isotype control) (antibody), the Percentage of Lag3 positive cells in test [1] came out at 2.5%; in test [2], 9.19%.

As for BMS-986016 (antibody), the Percentage of Lag3 positive cells in test [1] worked out at 10.1%; in test [2], 18.6%.

In test [3], control antibody MDX25F7 had an EC50 of restoration of the NFAT luciferase signal (NFAT Lag3 reporter assay: Lag3+ Jurkat, Raji cells, SED) of 1.29 µg/mL and an IC50 for near-complete reduction of luciferase activity (modified NFAT Lag3 reporter assay, Lag3+ Jurkat cells alone) of 0.033 µg/mL. The Percentage of Lag3 positive cells in test [1] is 11.3%. This substance also registered a Percentage of Lag3 positive cells in test [2] of 22.1%. Further, in test [4], the LAG3 positive cells (%) turned out to be 48.2% and the Signal intensity (Geo Mean) was found to be 1560 Geo Mean.
